No end group written: not given here.

What is called Kd is the free concentration of one partner at which half of the binding sites on the other are occupied at equilibrium, for simple one-to-one binding. A lower Kd goes with higher affinity. What is called stoichiometry N is the number of molecules, sites or subunits per partner or assembly.

The target in experiment [1] is T1, p300 BPΔR module (BRP 1048-1282 with the RING domain 1169-1241 replaced by a single glycine) (UniProt Q09472).
T1 chain: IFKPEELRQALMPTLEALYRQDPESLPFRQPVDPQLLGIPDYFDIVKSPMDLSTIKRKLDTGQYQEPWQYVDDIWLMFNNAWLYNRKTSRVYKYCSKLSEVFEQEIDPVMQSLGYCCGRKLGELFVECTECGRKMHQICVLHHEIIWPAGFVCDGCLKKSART
The experiment is described as follows: crystal structure.

The target in experiment [2] is T2, p300 BRP module (bromodomain-RING-PHD), residues 1048-1282 (UniProt Q09472 1048-1282).
T2 sequence: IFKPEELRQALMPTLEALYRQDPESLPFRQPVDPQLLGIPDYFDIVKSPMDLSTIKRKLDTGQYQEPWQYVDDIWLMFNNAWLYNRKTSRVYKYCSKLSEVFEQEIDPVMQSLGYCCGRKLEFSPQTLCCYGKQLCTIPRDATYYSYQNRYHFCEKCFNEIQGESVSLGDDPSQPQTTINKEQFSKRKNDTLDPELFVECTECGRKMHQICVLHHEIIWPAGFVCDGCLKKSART
The experiment is described as follows: ITC. (ITC needs no label: the signal is the heat of the interaction.)

As for GLGK(Ac)GGAK(Ac)RHR [11-mer histone peptide H4 (10-20) with acetylated K12 and K16], the binding result in experiment [1] is reported as “binds”.

As to ARTKQTQRK(Ac)STGGK(Ac)APRKQL [H3 K9acK14ac (1-20) peptide], in experiment [2], the Kd is 578 µM and the “stoichiometry N” value was found to be 1.06.

ARTKQTQRKSTGGK(Ac)APRKQL [H3 K14ac (1-20) peptide]: in experiment [2], binding was characterised by a dissociation constant (Kd) of 1760 µM and the “stoichiometry N” value stood at 1.13.

Source of the values: publication PMC6914384 (Nature, 2018).
